Where a chain is given by its changes, count along the chain named. One block for each binder: values may come before it.
Experiments:
CD24 [1] = target: T1, CD24 (human, UniProt P25063 27-59); test: cell-based or functional assay
T1 chain (looked up): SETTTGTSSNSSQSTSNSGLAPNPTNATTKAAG

CD24 [2] = target: T1, CD24; test: cell-based or functional assay

B1: KH16 (antibody, mouse IgG2a, kappa, V domains shown)
VH: DVQLQESGPDLVKPSQSLSLTCTVTGYSITSGYTWHWIRQFPGNKLEWMGYIQYSGSTNYNPSLKSRISFTRDTSKNQFFLQLNSVTTEDTATYYCARGTTGGLDYWGQGTTLTVSS
VL: DIVMSQSPSSLTVSVGEKITMSCKSSQSLLYSSDQKNYLAWYQQNPGQSPKLLIYWASTKASGVPDRFTGSGSGTDFTLTISSVKAEDLAVYYCQQYYIYPLTFGSGTKLEIKR
Phagocytosis rate % (A549 tumor cells by human PBMC-derived M2 macrophages, antibody 5 µg/ml) (CD24 [1]): 12.3%
Phagocytosis rate (%) (MCF-7 tumor cells by human PBMC-derived M2 macrophages, antibody 5 µg/ml) (CD24 [2]): 6.8%

B2: KH02 (antibody, mouse IgG2a, kappa, V domains shown)
VH: DVQLQESGPDLVKPSHSLSLTCTVTGYSITRGYSWHWIRQFPGNKLEWMGYIHYSGSTNYNPSLKSRISFTRDTSKNQFFLNLTSLTSEDTATYYCSRGSTWAFDHWGQGTILTVSS
VL: B1 VL with T12A, S33N, D34N, N45I, W56L, K60R, A61E, Y98F, L102M, T103S
Phagocytosis rate % (A549 tumor cells by human PBMC-derived M2 macrophages, antibody 5 µg/ml) (CD24 [1]): 10.3%
Phagocytosis rate (%) (MCF-7 tumor cells by human PBMC-derived M2 macrophages, antibody 5 µg/ml) (CD24 [2]): 3%

B3: KH12 (antibody, mouse IgG2a, kappa, V domains shown)
VH: B2 VH with L18F, S57N, I68F
VL: B1 VL with I19V, A40T, N45K, K60R, A61Y, L102F
Phagocytosis rate % (A549 tumor cells by human PBMC-derived M2 macrophages, antibody 5 µg/ml) (CD24 [1]): 11.1%

B4: KH06 (antibody, V domains shown)
VH: DVQLQESGPDLVNPSQSLSLTCTVTGYSISRGYSWHWLRRFPGNKLEWMGFIHYSGTTNYNPSLKSRISFTRDTSKNQFFLQLNSLTTEDTATYYCLRGTDRSFDYWGQGTTLTVSS
VL: B1 VL with T12V, T20S, S33N, D34N, N45I, K60R, A61E
Phagocytosis rate % (A549 tumor cells by human PBMC-derived M2 macrophages, antibody 5 µg/ml) (CD24 [1]): 10.9%
Phagocytosis rate (%) (MCF-7 tumor cells by human PBMC-derived M2 macrophages, antibody 5 µg/ml) (CD24 [2]): 4.3%

B6: KH07 (antibody, mouse IgG2b, kappa, V domains shown)
VH: DVQLQESGPDLEKPSQSLSLTCTVTGYSITRGYSWHWIRQFPGNKLEWMGYIHYSGSTKYNPSLKSRVSFTRDTSKNQFFLQLNSLSPEDTATYYCSRGSDRAFDYWGQGTTLTVSS
VL: DIVMSQSPSSLAVSIGEKVTMNCQSSQSLLYSNNQKNYLVWYQQKPGQSPKLLIHWASTRESGVPDRFTGSGSGTDFTLTISSVKAEDLAVYYCQQYYIYPFTFGSGTKLEIKR
Phagocytosis rate % (A549 tumor cells by human PBMC-derived M2 macrophages, antibody 5 µg/ml) (CD24 [1]): 10.1%

B7: KH01 (antibody, mouse IgG2a, kappa, V domains shown)
VH: DVQLQESGPDLVKPSQSLSLTCTVTGHSITRGYSWHWIRQFPGNKLEWMGYIHHRGTTNYNPSLKSRISFTRDTSKNQFFLQLNSLTTEDTATYFCSRGTNSAFDYWGQGTTLTVSS
VL: DIQMTQTTSSLSASLGDRVTISCRASQDISNYLNWYQQKPDGTVKLLIYYTSRLHSGVPSRFSGSGSGTDYSLTISNLEQEDIATYFCQQGNTLPHTFGGGTKLEIKR
Phagocytosis rate % (A549 tumor cells by human PBMC-derived M2 macrophages, antibody 5 µg/ml) (CD24 [1]): 11.8%
Phagocytosis rate (%) (MCF-7 tumor cells by human PBMC-derived M2 macrophages, antibody 5 µg/ml) (CD24 [2]): 6.2%

B11: KH05 (antibody, mouse IgG2b, kappa, V domains shown)
VH: B7 VH with R31N, R55S, T57S, F95Y, S97L, N101D, S102R, A103S
VL: B1 VL with T12V, T20S, S33N, D34N, N45I, K60R, A61E
Phagocytosis rate % (A549 tumor cells by human PBMC-derived M2 macrophages, antibody 5 µg/ml) (CD24 [1]): 10.4%
Phagocytosis rate (%) (MCF-7 tumor cells by human PBMC-derived M2 macrophages, antibody 5 µg/ml) (CD24 [2]): 3.2%

B12: KH04 (antibody, mouse IgG2a, kappa, V domains shown)
VH: B7 VH with T57S, S97L
VL: B1 VL
Phagocytosis rate % (A549 tumor cells by human PBMC-derived M2 macrophages, antibody 5 µg/ml) (CD24 [1]): 12.8%

B13: KH03 (antibody, mouse IgG2a, kappa, V domains shown)
VH: B7 VH with T57S
VL: B1 VL with K60R, V91I
Phagocytosis rate % (A549 tumor cells by human PBMC-derived M2 macrophages, antibody 5 µg/ml) (CD24 [1]): 11.9%
Phagocytosis rate (%) (MCF-7 tumor cells by human PBMC-derived M2 macrophages, antibody 5 µg/ml) (CD24 [2]): 3.6%

B15: KH14 (antibody, mouse IgG2b, kappa, V domains shown)
VH: B7 VH with R31N, R55S, T57S, F95Y, S97L, N101D, S102R, A103S
VL: B6 VL with I15V, K18N, V19I, N22T, Q24K, V40T, K45N, H55Y
Phagocytosis rate % (A549 tumor cells by human PBMC-derived M2 macrophages, antibody 5 µg/ml) (CD24 [1]): 11.2%
Phagocytosis rate (%) (MCF-7 tumor cells by human PBMC-derived M2 macrophages, antibody 5 µg/ml) (CD24 [2]): 3.4%

B16: KH10 (antibody, mouse IgG2a, kappa, V domains shown)
VH: B7 VH with T57S
VL: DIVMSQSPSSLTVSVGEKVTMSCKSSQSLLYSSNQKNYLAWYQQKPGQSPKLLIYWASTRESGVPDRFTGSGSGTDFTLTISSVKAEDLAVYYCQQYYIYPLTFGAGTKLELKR
Phagocytosis rate % (A549 tumor cells by human PBMC-derived M2 macrophages, antibody 5 µg/ml) (CD24 [1]): 12.1%

B17: KH19 (antibody, mouse IgG2b, kappa, V domains shown)
VH: B7 VH with R31N, R55S, T57S, F95Y, S97L, N101D, S102R, A103S
VL: DIVMSQSPSSLAVSVGEKVTVSCKSSQSLLYSSDQKNYLTWYQQKPGQSPKLLIYWASTRESGVPDRFTGGGSGTDFTLTISSVRAEDLAVYYCQQYFIYPFTFGSGTKLEIKR
Phagocytosis rate % (A549 tumor cells by human PBMC-derived M2 macrophages, antibody 5 µg/ml) (CD24 [1]): 10.3%

Second part, the binder after the results:

Phagocytosis rate % (A549 tumor cells by human PBMC-derived M2 macrophages, antibody 5 µg/ml) (CD24 [1]): 10.6%
B5: KH27 (antibody, mouse IgG2b, kappa, V domains shown)
VH: B1 VH with S31R, Y54F, N59K, I68F, F70I, G102T, G103A, T112S, L113V
VL: B6 VL with N33S

Phagocytosis rate % (A549 tumor cells by human PBMC-derived M2 macrophages, antibody 5 µg/ml) (CD24 [1]): 8.95%
B8: KH29 (antibody, mouse IgG2b, kappa, V domains shown)
VH: B7 VH with S66N
VL: B6 VL with I15V, M21L, Q24K, N33K, L39S, V40A, H55Y, F102L, S106A, I112L

Phagocytosis rate % (A549 tumor cells by human PBMC-derived M2 macrophages, antibody 5 µg/ml) (CD24 [1]): 10.2%
B9: KH21 (antibody, mouse IgG2a, kappa, V domains shown)
VH: B7 VH
VL: B1 VL

Phagocytosis rate % (A549 tumor cells by human PBMC-derived M2 macrophages, antibody 5 µg/ml) (CD24 [1]): 18.3%
B10: KH33 (antibody, mouse IgG2a, kappa, V domains shown)
VH: B7 VH
VL: QIVLTQSPAIMSASPGEKVTMTCSASSSISYMHWYQQKPGTSPKRWIYDTSKLASGVPARFSGSGSGTSYSLTISSMEAEDAATYYCHQRSSYPCTFGGGTKLEIKR

Phagocytosis rate % (A549 tumor cells by human PBMC-derived M2 macrophages, antibody 5 µg/ml) (CD24 [1]): 11%
Phagocytosis rate (%) (MCF-7 tumor cells by human PBMC-derived M2 macrophages, antibody 5 µg/ml) (CD24 [2]): 6.5%
B14: KH25 (antibody, mouse IgG2b, kappa, V domains shown)
VH: B7 VH with T57S
VL: B1 VL with T12V, T20S, S33N, D34N, N45I, K60R, A61E

— US20250263500A1 (BEIJING KANGHONG BIOMEDICAL, published 2025)
